The record followed here is patent US20230312721A1 (published 2023).

The chains are these.
B1: L3H1 (antibody, human IgG1, kappa, V domains shown)
VH: QVQLVQSGAEVKKPGASVKVSCKASGYTFTNYDINWVRQATGQGLEWIGWIFPGDGSTQYNEKFQGRVTLTTNTSISTAYMELSSLRSEDTAVYYCARQTTATWFAYWGQGTLVTVSS
VL: EIVMTQSPDFQSVTPKEKVTLTCRASQSISDYLHWYQQKPDQSPKLLIKYASQSISGVPSRFSGSGSGSDFTLTINSLEAEDAGVYYCQNGHSFPLTFGQGTKLEIKR
notes: Humanized IgG1, HEK293; chains tied by the L/H names; also called YB8 L3 + YB8 H1
B2: L2H1 (antibody, human IgG1, kappa)
heavy: not shown
light: EIVMTQSPDFQSVTPKEKVTITCRASQSISDYLHWYQQKPDQSPKLLIKYASQSISGVPSRFSGSGSGSDFTLTINSLEAEDAATYYCQNGHSFPLTFGQGTKLEIKRTVAAPSVFIFPPSDEQLKSGTASVVCLLNNFYPREAKVQWKVDNALQSGNSQESVTEQDSKDSTYSLSSTLTLSKADYEKHKVYACEVTHQGLSSPVTKSFNRGEC
notes: Humanized IgG1, HEK293; chains tied by the L/H names; also called YB8 L2 + YB8 H1
B3: L1H2 (antibody, human IgG1, kappa)
heavy: not shown
light: EIVLTQSPDFQSVTPKEKVTLTCRASQSISDYLHWYQQKPDQSPKLLIKYASQSISGVPSRFSGSGSGSDFTLTINSLEAEDAATYYCQNGHSFPLTFGQGTKLEIKRTVAAPSVFIFPPSDEQLKSGTASVVCLLNNFYPREAKVQWKVDNALQSGNSQESVTEQDSKDSTYSLSSTLTLSKADYEKHKVYACEVTHQGLSSPVTKSFNRGEC
notes: Humanized IgG1, HEK293; chains tied by the L/H names; also called YB8 L1 + YB8 H2
B4: L2H2 (antibody, human IgG1, kappa)
heavy: not shown
light: EIVMTQSPDFQSVTPKEKVTITCRASQSISDYLHWYQQKPDQSPKLLIKYASQSISGVPSRFSGSGSGSDFTLTINSLEAEDAATYYCQNGHSFPLTFGQGTKLEIKRTVAAPSVFIFPPSDEQLKSGTASVVCLLNNFYPREAKVQWKVDNALQSGNSQESVTEQDSKDSTYSLSSTLTLSKADYEKHKVYACEVTHQGLSSPVTKSFNRGEC
notes: Humanized IgG1, HEK293; chains tied by the L/H names; also called YB8 L2 + YB8 H2
B5: L2H3 (antibody, human IgG1, kappa)
heavy: not shown
light: EIVMTQSPDFQSVTPKEKVTITCRASQSISDYLHWYQQKPDQSPKLLIKYASQSISGVPSRFSGSGSGSDFTLTINSLEAEDAATYYCQNGHSFPLTFGQGTKLEIKRTVAAPSVFIFPPSDEQLKSGTASVVCLLNNFYPREAKVQWKVDNALQSGNSQESVTEQDSKDSTYSLSSTLTLSKADYEKHKVYACEVTHQGLSSPVTKSFNRGEC
notes: Humanized IgG1, HEK293; chains tied by the L/H names; Lead candidate; also called YB8 L2 + YB8 H3
B6: L1H1 (antibody, human IgG1, kappa)
heavy: not shown
light: EIVLTQSPDFQSVTPKEKVTLTCRASQSISDYLHWYQQKPDQSPKLLIKYASQSISGVPSRFSGSGSGSDFTLTINSLEAEDAATYYCQNGHSFPLTFGQGTKLEIKRTVAAPSVFIFPPSDEQLKSGTASVVCLLNNFYPREAKVQWKVDNALQSGNSQESVTEQDSKDSTYSLSSTLTLSKADYEKHKVYACEVTHQGLSSPVTKSFNRGEC
notes: Humanized IgG1, HEK293; chains tied by the L/H names; also called YB8 L1 + YB8 H1
B7: L1H6 (antibody, human IgG1, kappa)
heavy: not shown
light: EIVLTQSPDFQSVTPKEKVTLTCRASQSISDYLHWYQQKPDQSPKLLIKYASQSISGVPSRFSGSGSGSDFTLTINSLEAEDAATYYCQNGHSFPLTFGQGTKLEIKRTVAAPSVFIFPPSDEQLKSGTASVVCLLNNFYPREAKVQWKVDNALQSGNSQESVTEQDSKDSTYSLSSTLTLSKADYEKHKVYACEVTHQGLSSPVTKSFNRGEC
notes: Humanized IgG1, HEK293; chains tied by the L/H names; also called YB8 L1 + YB8 H6
B8: L3H3 (antibody, human IgG1, kappa, V domains shown)
VH: QVQLVQSGAEVKKPGASVKVSCKASGYTFTNYDINWVRQATGQGLEWMGWIFPGDGSTQYNEKFKGRVTLTRNTSISTAYMELSSLRSEDTAVYFCARQTTATWFAYWGQGTLVTVSS
VL: EIVMTQSPDFQSVTPKEKVTLTCRASQSISDYLHWYQQKPDQSPKLLIKYASQSISGVPSRFSGSGSGSDFTLTINSLEAEDAGVYYCQNGHSFPLTFGQGTKLEIKR
notes: Humanized IgG1, HEK293; chains tied by the L/H names; also called YB8 L3 + YB8 H3
B9: L1H4 (antibody, human IgG1, kappa)
heavy: not shown
light: EIVLTQSPDFQSVTPKEKVTLTCRASQSISDYLHWYQQKPDQSPKLLIKYASQSISGVPSRFSGSGSGSDFTLTINSLEAEDAATYYCQNGHSFPLTFGQGTKLEIKRTVAAPSVFIFPPSDEQLKSGTASVVCLLNNFYPREAKVQWKVDNALQSGNSQESVTEQDSKDSTYSLSSTLTLSKADYEKHKVYACEVTHQGLSSPVTKSFNRGEC
notes: Humanized IgG1, HEK293; chains tied by the L/H names; also called YB8 L1 + YB8 H4
B10: L1H3 (antibody, human IgG1, kappa)
heavy: not shown
light: EIVLTQSPDFQSVTPKEKVTLTCRASQSISDYLHWYQQKPDQSPKLLIKYASQSISGVPSRFSGSGSGSDFTLTINSLEAEDAATYYCQNGHSFPLTFGQGTKLEIKRTVAAPSVFIFPPSDEQLKSGTASVVCLLNNFYPREAKVQWKVDNALQSGNSQESVTEQDSKDSTYSLSSTLTLSKADYEKHKVYACEVTHQGLSSPVTKSFNRGEC
notes: Humanized IgG1, HEK293; chains tied by the L/H names; also called YB8 L1 + YB8 H3
B11: L1H5 (antibody, human IgG1, kappa)
heavy: not shown
light: EIVLTQSPDFQSVTPKEKVTLTCRASQSISDYLHWYQQKPDQSPKLLIKYASQSISGVPSRFSGSGSGSDFTLTINSLEAEDAATYYCQNGHSFPLTFGQGTKLEIKRTVAAPSVFIFPPSDEQLKSGTASVVCLLNNFYPREAKVQWKVDNALQSGNSQESVTEQDSKDSTYSLSSTLTLSKADYEKHKVYACEVTHQGLSSPVTKSFNRGEC
notes: Humanized IgG1, HEK293; chains tied by the L/H names; also called YB8 L1 + YB8 H5
B12: L3H2 (antibody, human IgG1, kappa, V domains shown)
VH: QVQLQQSGAEVKKPGASVKVSCKASGYTFTNYDINWVRQATGQGLEWIGWIFPGDGSTQYNEKFKGRATLTRNTSISTAYMELSSLRSEDTAVYYCARQTTATWFAYWGQGTLVTVSS
VL: EIVMTQSPDFQSVTPKEKVTLTCRASQSISDYLHWYQQKPDQSPKLLIKYASQSISGVPSRFSGSGSGSDFTLTINSLEAEDAGVYYCQNGHSFPLTFGQGTKLEIKR
notes: Humanized IgG1, HEK293; chains tied by the L/H names; also called YB8 L3 + YB8 H2
B13: L2H6 (antibody, human IgG1, kappa)
heavy: not shown
light: EIVMTQSPDFQSVTPKEKVTITCRASQSISDYLHWYQQKPDQSPKLLIKYASQSISGVPSRFSGSGSGSDFTLTINSLEAEDAATYYCQNGHSFPLTFGQGTKLEIKRTVAAPSVFIFPPSDEQLKSGTASVVCLLNNFYPREAKVQWKVDNALQSGNSQESVTEQDSKDSTYSLSSTLTLSKADYEKHKVYACEVTHQGLSSPVTKSFNRGEC
notes: Humanized IgG1, HEK293; chains tied by the L/H names; also called YB8 L2 + YB8 H6
B14: L2H4 (antibody, human IgG1, kappa)
heavy: not shown
light: EIVMTQSPDFQSVTPKEKVTITCRASQSISDYLHWYQQKPDQSPKLLIKYASQSISGVPSRFSGSGSGSDFTLTINSLEAEDAATYYCQNGHSFPLTFGQGTKLEIKRTVAAPSVFIFPPSDEQLKSGTASVVCLLNNFYPREAKVQWKVDNALQSGNSQESVTEQDSKDSTYSLSSTLTLSKADYEKHKVYACEVTHQGLSSPVTKSFNRGEC
notes: Humanized IgG1, HEK293; chains tied by the L/H names; Lead candidate; also called YB8 L2 + YB8 H4
B15: L2H5 (antibody, human IgG1, kappa)
heavy: not shown
light: EIVMTQSPDFQSVTPKEKVTITCRASQSISDYLHWYQQKPDQSPKLLIKYASQSISGVPSRFSGSGSGSDFTLTINSLEAEDAATYYCQNGHSFPLTFGQGTKLEIKRTVAAPSVFIFPPSDEQLKSGTASVVCLLNNFYPREAKVQWKVDNALQSGNSQESVTEQDSKDSTYSLSSTLTLSKADYEKHKVYACEVTHQGLSSPVTKSFNRGEC
notes: chains tied by the L/H names; Selected lead; also called YB8-L2H5; YB8 L2 + YB8 H5
B16: chimeric anti-B7H3 IgG (Chimeric Heavy Chain (Parental) + Chimeric Light chain (parental)) (antibody, V domains shown)
VH: QVQLQQSGAELVKPGASVKLSCKASGYTFTNYDINWVRQRPEQGLEWIGWIFPGDGSTQYNEKFKGKATLTTDTSSSTAYMQLSRLTSEDSAVYFCARQTTATWFAYWGQGTLVTVSA
VL: DIVMTQSPATLSVTPGDRVSLSCRASQSISDYLHWYQQKSHESPRLLIKYASQSISGIPSRFSGSGSGSDFTLSINSVEPEDVGVYYCQNGHSFPLTFGAGTKLELKR
notes: Chimeric IgG1 with murine 8H9 variable domains, expressed in HEK293; also called Chimeric IgG; parental chimeric antibody

This test deals with T1, 4Ig human B7-H3 (human, UniProt Q5ZPR3 29-466, limits assumed).
T1 construct: Soluble analyte in SPR; also called 4Ig-B7H3; 4Ig B7H3
T1 sequence: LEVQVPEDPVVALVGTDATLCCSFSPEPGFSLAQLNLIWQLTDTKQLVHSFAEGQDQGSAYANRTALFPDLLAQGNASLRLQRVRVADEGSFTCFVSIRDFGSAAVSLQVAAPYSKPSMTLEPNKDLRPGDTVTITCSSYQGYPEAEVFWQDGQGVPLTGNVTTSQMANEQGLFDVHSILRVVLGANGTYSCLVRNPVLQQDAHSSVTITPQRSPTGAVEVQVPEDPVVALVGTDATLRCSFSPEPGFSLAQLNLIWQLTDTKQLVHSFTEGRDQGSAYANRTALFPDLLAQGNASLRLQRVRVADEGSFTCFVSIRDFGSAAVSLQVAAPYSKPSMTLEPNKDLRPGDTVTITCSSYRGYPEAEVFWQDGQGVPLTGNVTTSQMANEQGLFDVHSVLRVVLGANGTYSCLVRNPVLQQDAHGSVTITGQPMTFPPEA
Nature of the test: SPR, Carterra LSA; antibody captured on anti-human Fc lawn, 4Ig human B7-H3 as analyte. On the procedure: Chimeric and humanized antibodies were generated using CDR grafting methods using closely homologous human germline sequences. Six different humanized VH and four humanized VL sequences were combined to generate 24 different humanized IgG1 antibodies. The antibodies were expressed in HEK293 cells and purified using Protein A resin. Antibodies were buffer exchanged into PBS and quantified by OD280 and titer was calculated. Sample purity and aggregation status was determined by analytical Size Exclusion Chromatography (SEC-HPLC), which separates molecules based on molecular mass and hydrodynamic volume. Area % of each peak is calculated based on total area of the peaks. Peak symmetry is calculated to determine the peak fronting (<1) or tailing (>1). A column of 300A pore size was used for detection at 280 nm and PBS as the running buffer. Surface plasmon resonance studies to assess binding affinities were carried out on a Carterra LSA instrument. An anti-human Fc antibody “lawn” was prepared on a HC30M chip by amine coupling. The chip was activated with equal volume of 100 mM MES pH 5.5, 100 mM S-NHS and 400 mM EDC. The anti-human IgG Fc antibody was immobilized. The chip was deactivated with 1 M ethanolamine pH 8.5. Antibodies were diluted and printed onto the anti-human Fc lawn. An 8-point series of 4Ig human B7-H3 was prepared.
The characterization data, including expression titers (mg of purified protein per L of culture), purity (% monomer peak by analytical SEC-HPLC) and affinity measurement by SPR (ka, kd and KD) are summarized in Table 1 and FIG. 1-4.
(Surface plasmon resonance follows binding to a sensor surface in real time, without labels.)
As usually defined, the Kd is the concentration at which binding is half-saturated. A lower Kd goes with a tighter complex. Broadly, the koff is the first-order rate constant of dissociation. High values mean fast dissociation, low ones slow dissociation. The kon is the rate constant with which the complex forms. A high value points to faster complex formation. The molecule B1 displayed a Kd of 10 nM, a koff of 0.00034 s⁻¹ and a kon of 34000 M⁻¹ s⁻¹.
The like results for B2 were, in that order, 11 nM, 0.00041 s⁻¹ and 39000 M⁻¹ s⁻¹.
For B3 the same measures were 14 nM, 0.00041 s⁻¹ and 29000 M⁻¹ s⁻¹.
Turning to B4, the Kd was 11 nM, the koff amounted to 0.00037 s⁻¹ and the kon is 33000 M⁻¹ s⁻¹.
The like results for B5 were, in that order, 9.9 nM, 0.00034 s⁻¹ and 34000 M⁻¹ s⁻¹.
B6 gave a Kd of 15 nM, a koff of 0.00043 s⁻¹ and a kon of 31000 M⁻¹ s⁻¹.
The like results for B7 were, in that order, 25 nM, 0.00066 s⁻¹ and 26000 M⁻¹ s⁻¹.
For B8 the same measures were 9.7 nM, 0.00032 s⁻¹ and 32000 M⁻¹ s⁻¹.
The like results for B9 were, in that order, 9.5 nM, 0.00041 s⁻¹ and 43000 M⁻¹ s⁻¹.
The molecule B10 displayed a Kd of 8.1 nM, a koff of 0.00035 s⁻¹ and a kon of 43000 M⁻¹ s⁻¹.
The like results for B11 were, in that order, 11 nM, 0.00042 s⁻¹ and 39000 M⁻¹ s⁻¹.
In the case of B12, the Kd stood at 11 nM, the dissociation rate constant (koff) was 0.00035 s⁻¹ and the on-rate (kon) was 32000 M⁻¹ s⁻¹.
For B13 the same measures were 24 nM, 0.00051 s⁻¹ and 21000 M⁻¹ s⁻¹.
The like results for B14 were, in that order, 8.2 nM, 0.00036 s⁻¹ and 44000 M⁻¹ s⁻¹.
B15 showed a Kd of 9.4 nM, a koff of 0.0004 s⁻¹ and a kon of 42000 M⁻¹ s⁻¹.
For B16 the same measures were 10 nM, 0.00079 s⁻¹ and 78000 M⁻¹ s⁻¹.
